Measurements: PMC6600415
One block for each binder: values may come before it.

Target: low-density lipoprotein receptor-related protein 6 (LRP6), O75581

TOPflash luciferase reporter activity in HEK 293T cells, percent inhibition, two concentrations up to 500 ng/mL (4.2 nM): 47%
B1: LysRS-DKK2-Fc fusion protein, Q9UBU2 34-259 (Fc fusion)
chain: KLNSIKSSLGGETPGQAANRSAGMYQGLAFGGSKKGKNLGQAYPCSSDKECEVGRYCHSPHQGSSACMVCRRKKKRCHRDGMCCPSTRCNNGICIPVTESILTPHIPALDGTRHRDRNHGHYSNHDLGWQNLGRPHTKMSHIKGHEGDPCLRSSDCIEGFCCARHFWTKICKPVLHQGEVCTKQRKKGSHGLEIFQRCDCAKGLSCKVWKDATYSSKARLHVCQKI

TOPflash luciferase reporter activity in HEK 293T cells, percent inhibition; TEV-cleaved LysRS-DKK2-Fc (2): mixed with TEV protease and immediately added to cells: 18%
B2: TEV-cleaved LysRS-DKK2-Fc (DKK2-Fc released by TEV protease), Q9UBU2 34-259 (Fc fusion)
chain: B1 chain
